# B1: E3 ubiquitin-protein ligase Hakai (Mus musculus), Q9JIY2 (parent)
# chain: MDHTDNELQGTNSSGSLGGLDVRRRIPIKLISKQASKVKPAPRTQRTVSRMPAKAPQGDEEGFDYNEEQRYDCKGGELFGNQRRFPGHLFWDFKINILGEKDDTPVHFCDKCGLPIKVYGRMIPCKHVFCYDCAILHEKKGDKMCPGCSDPVQRIEQCTRGSLFMCSIVQGCKRTYLSQRDLQAHINHRHMRAGKPVTRASLENVHPPIAPPPTDIPDRFIMPPDKHHMSHIPPKQHIMMPPPPLQHVPHEHYNQPHEDIRAPPAELSMAPPPPRSVSQETFRISTRKHSNLITVPIQDDSSSGAREPPPPAPAPAHHHPEYQGQPVVSHPHHIMPPQQHYAPPPPPPPPISHPMPHPPQAAGTPHLVYSQAPPPPMTSAPPPITPPPGHIIAQMPPYMNHPPPGPPPPQHGGPPVTAPPPHHYNPNSLPQFTEDQGTLSPPFTQPGGMSPGIWPAPRGPPPPPRMQGPPSQTPLPGPHHPDQTRYRPYYQ
# B2: Cadherin-1 (Homo sapiens), P12830 (parent)
# chain: MGPWSRSLSALLLLLQVSSWLCQEPEPCHPGFDAESYTFTVPRRHLERGRVLGRVNFEDCTGRQRTAYFSLDTRFKVGTDGVITVKRPLRFHNPQIHFLVYAWDSTYRKFSTKVTLNTVGHHHRPPPHQASVSGIQAELLTFPNSSPGLRRQKRDWVIPPISCPENEKGPFPKNLVQIKSNKDKEGKVFYSITGQGADTPPVGVFIIERETGWLKVTEPLDRERIATYTLFSHAVSSNGNAVEDPMEILITVTDQNDNKPEFTQEVFKGSVMEGALPGTSVMEVTATDADDDVNTYNAAIAYTILSQDPELPDKNMFTINRNTGVISVVTTGLDRESFPTYTLVVQAADLQGEGLSTTATAVITVTDTNDNPPIFNPTTYKGQVPENEANVVITTLKVTDADAPNTPAWEAVYTILNDDGGQFVVTTNPVNNDGILKTAKGLDFEAKQQYILHVAVTNVVPFEVSLTTSTATVTVDVLDVNEAPIFVPPEKRVEVSEDFGVGQEITSYTAQEPDTFMEQKITYRIWRDTANWLEINPDTGAISTRAELDREDFEHVKNSTYTALIIATDNGSPVATGTGTLLLILSDVNDNAPIPEPRTIFFCERNPKPQVINIIDADLPPNTSPFTAELTHGASANWTIQYNDPTQESIILKPKMALEVGDYKINLKLMDNQNKDQVTTLEVSVCDCEGAAGVCRKAQPVEAGLQIPAILGILGGILALLILILLLLLFLRRRAVVKEPLLPPEDDTRDNVYYYDEEGGGEEDQDFDLSQLHRGLDARPEVTRNDVAPTLMSVPRYLPRPANPDEIGNFIDENLKAADTDPTAPPYDSLLVFDYEGSGSEAASLSSLNSSESDKDQDYDYLNEWGNRFKKLADMYGGGEDD
# Variants of: B1
# Conditions: with cadh1_human CDH1, P12830
row,Variant,effect of a mutation on the interaction
1,C166A,disrupting interaction

# Variants of: B1
# Conditions: with src8_human CTTN
row,Variant,effect of a mutation on the interaction
1,C166A,disrupting interaction

# Variants of: B1
# Conditions: with cadh1_human CDH1, P12830
# Remark: another data set of the same source
row,Variant,effect of a mutation on the interaction
1,C172A,disrupting interaction

# Variants of: B1
# Conditions: with src8_human CTTN
# Remark: another data set of the same source
row,Variant,effect of a mutation on the interaction
1,C172A,disrupting interaction

# Variants of: B1
# Conditions: with cadh1_human CDH1, P12830
# Remark: another data set of the same source
row,Variant,effect of a mutation on the interaction
1,H185A,disrupting interaction

# Variants of: B1
# Conditions: with src8_human CTTN
# Remark: another data set of the same source
row,Variant,effect of a mutation on the interaction
1,H185A,disrupting interaction

# Variants of: B1
# Conditions: with cadh1_human CDH1, P12830
# Remark: another data set of the same source
row,Variant,effect of a mutation on the interaction
1,H190A,disrupting interaction

# Variants of: B1
# Conditions: with src8_human CTTN
# Remark: another data set of the same source
row,Variant,effect of a mutation on the interaction
1,H190A,disrupting interaction

# Variants of: B1
# Conditions: with cadh1_human CDH1, P12830
# Remark: another data set of the same source
row,Variant,effect of a mutation on the interaction
1,H127A,disrupting interaction

# Variants of: B1
# Conditions: with src8_human CTTN
# Remark: another data set of the same source
row,Variant,effect of a mutation on the interaction
1,H127A,disrupting interaction

# Variants of: B1
# Conditions: with cadh1_human CDH1, P12830
# Remark: another data set of the same source
row,Variant,effect of a mutation on the interaction
1,Y176A,disrupting interaction

# Variants of: B1
# Conditions: with src8_human CTTN
# Remark: another data set of the same source
row,Variant,effect of a mutation on the interaction
1,Y176A,disrupting interaction

# Variants of: B1
# Conditions: with cadh1_human CDH1, P12830
# Remark: another data set of the same source
row,Variant,effect of a mutation on the interaction
1,R189A,disrupting interaction

# Variants of: B1
# Conditions: with src8_human CTTN
# Remark: another data set of the same source
row,Variant,effect of a mutation on the interaction
1,R189A,disrupting interaction

# Variants of: B2
# Conditions: with hakai_mouse Cbll1, Q9JIY2
row,Variant,effect of a mutation on the interaction
1,Y754F,disrupting interaction

# Variants of: B2
# Conditions: with hakai_mouse Cbll1, Q9JIY2
# Remark: another data set of the same source
row,Variant,effect of a mutation on the interaction
1,Y753F,disrupting interaction

# Variants of: B2
# Conditions: with hakai_mouse Cbll1, Q9JIY2
# Remark: another data set of the same source
row,Variant,effect of a mutation on the interaction
1,Y755F,disrupting interaction

# Variants of: B2
# Conditions: with hakai_mouse Cbll1, Q9JIY2
# Remark: another data set of the same source
row,Variant,effect of a mutation on the interaction
1,E757A,disrupting interaction

# Variants of: B2
# Conditions: with hakai_mouse Cbll1, Q9JIY2
# Remark: another data set of the same source
row,Variant,effect of a mutation on the interaction
1,D756A,disrupting interaction

# Variants of: B2
# Conditions: with hakai_mouse Cbll1, Q9JIY2
# Remark: another data set of the same source
row,Variant,effect of a mutation on the interaction
1,D750A,disrupting interaction

# Variants of: B2
# Conditions: with hakai_mouse Cbll1, Q9JIY2
# Remark: another data set of the same source
row,Variant,effect of a mutation on the interaction
1,V752A,disrupting interaction
